From patent US20130177556
Read-outs that look alike come from different tables or passages of the source.

Legend:
[1] = molecular target: EGFR on A549 cells (Homo sapiens) (UniProt P00533)
[2] = molecular target: EGFR extracellular domain (EC-EGFR) (Homo sapiens) (UniProt P00533); assay: filter; settings: 2'-F pyrimidines (all C and U); PBS, 0.01% BSA, 37 C, 15 min; scrambled background subtracted
[3] = molecular target: EGFR on A549 cells (Homo sapiens) (UniProt P00533); assay: cell_activity; settings: 2'-F pyrimidines (all C and U); inhibition of EGF-dependent EGFR phosphorylation in A549, 200 nM aptamer

| Sequence | Kd ([1]; 2'-F pyrimidines, Kd stated for full-length CL4, whole A549 cells implied) [nM] | Kd [2] [nM] | Kd ([1]; 2'-F pyrimidines (all C and U), binding to whole A549 cells, radiolabelled aptamer) [nM] | activity [3] [% inhibition] |
| --- | --- | --- | --- | --- |
| GGGAGACAAGAAUAAACGCUCAACGACACGUUGCCAGCCGGAGCCUUAGUAACGUGCUUUGAUGUCGAUUCGACAGGAGGCUCACAACAGGC [CL4] | 46 | – | – | – |
| GCCUUAGUAACGUGCUUUGAUGUCGAUUCGACAGGAGGC [CL4 42-81] | – | 10 | 38 | 60 |
